Earlier results on two substances are cited in paper PMC5871670.

The term Kd denotes the free concentration of one partner at which half of the binding sites on the other are occupied at equilibrium, for simple one-to-one binding.

The target of one series is Factor XI (Homo sapiens) (UniProt P03951).
A further series concerns the target gC1q-R (Homo sapiens) (UniProt Q07021). Put plainly: surface plasmon resonance. In general terms: SPR reads the build-up and loss of mass on a sensor chip optically.
Chain of UniProt Q07021 (Q07021 74-282): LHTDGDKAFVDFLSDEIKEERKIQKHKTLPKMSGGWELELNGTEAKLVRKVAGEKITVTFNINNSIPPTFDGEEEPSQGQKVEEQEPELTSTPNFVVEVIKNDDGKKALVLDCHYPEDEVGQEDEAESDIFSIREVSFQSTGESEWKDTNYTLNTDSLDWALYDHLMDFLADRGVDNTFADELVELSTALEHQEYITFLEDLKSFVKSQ
In series [1] the target is cytokeratin 1 (CK1) (Homo sapiens) (UniProt P04264). Put plainly: surface plasmon resonance.
Chain of UniProt P04264 (P04264 2-644): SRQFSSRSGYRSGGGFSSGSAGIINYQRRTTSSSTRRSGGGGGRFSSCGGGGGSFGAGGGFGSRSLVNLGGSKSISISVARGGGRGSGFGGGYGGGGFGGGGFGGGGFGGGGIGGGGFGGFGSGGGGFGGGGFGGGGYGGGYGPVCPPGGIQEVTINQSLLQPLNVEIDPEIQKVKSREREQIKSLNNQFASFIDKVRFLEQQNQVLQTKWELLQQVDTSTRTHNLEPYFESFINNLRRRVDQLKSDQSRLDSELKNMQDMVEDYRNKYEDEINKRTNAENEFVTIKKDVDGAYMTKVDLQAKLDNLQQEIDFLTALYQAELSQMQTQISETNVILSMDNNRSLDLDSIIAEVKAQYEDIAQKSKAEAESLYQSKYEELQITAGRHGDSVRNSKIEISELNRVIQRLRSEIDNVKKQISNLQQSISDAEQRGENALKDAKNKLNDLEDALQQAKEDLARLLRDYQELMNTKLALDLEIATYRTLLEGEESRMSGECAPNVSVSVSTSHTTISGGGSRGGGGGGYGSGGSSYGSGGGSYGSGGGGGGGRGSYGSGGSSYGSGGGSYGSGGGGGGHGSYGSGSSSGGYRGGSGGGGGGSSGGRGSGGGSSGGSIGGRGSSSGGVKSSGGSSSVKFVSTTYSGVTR
The next series addresses uPAR (Homo sapiens) (UniProt Q03405). Put plainly: surface plasmon resonance.
Chain of UniProt Q03405 (Q03405 23-305): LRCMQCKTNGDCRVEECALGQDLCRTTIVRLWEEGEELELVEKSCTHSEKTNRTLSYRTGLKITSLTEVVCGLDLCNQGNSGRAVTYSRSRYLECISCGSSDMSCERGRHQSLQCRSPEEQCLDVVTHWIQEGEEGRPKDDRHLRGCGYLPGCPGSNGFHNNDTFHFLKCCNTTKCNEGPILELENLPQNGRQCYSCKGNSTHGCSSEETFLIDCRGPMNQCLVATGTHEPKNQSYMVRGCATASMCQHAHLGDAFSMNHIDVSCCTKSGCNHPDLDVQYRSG

Chain of UniProt P03951 (P03951 388-625): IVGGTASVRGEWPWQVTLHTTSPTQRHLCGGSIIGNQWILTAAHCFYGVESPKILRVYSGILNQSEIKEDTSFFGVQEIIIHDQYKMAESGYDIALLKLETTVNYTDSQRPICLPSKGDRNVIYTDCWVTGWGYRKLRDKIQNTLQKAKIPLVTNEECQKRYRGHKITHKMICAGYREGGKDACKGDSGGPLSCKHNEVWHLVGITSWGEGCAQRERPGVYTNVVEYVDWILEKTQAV

Take GPIbα (from UniProt P07359): the Kd with Factor XI (Homo sapiens) was 52 nM.

For “high molecular weight kininogen (HK) (from UniProt P01042)”, the Kd in the series with gC1q-R (Homo sapiens) is 0.8 nM; in series [1] it was 15 nM; in the series with uPAR (Homo sapiens), 2300 nM.
